For experiment [1], the target named is T1, D′D3 albumin fusion protein (D′D3-FP), dimer (human, Covalent homodimer: the two chains are joined by disulfide bridge(s) within the D3 part (paragraph 124 names Cys-1099, Cys-1142, Cys-1222, Cys-1225, Cys-1227 in SEQ ID NO:4 numbering). N-glycosylated, …).
T1 construct: It was expressed in CHO K1 cells with the VWF propeptide, which is cleaved by co-transfected furin; The dimer fraction was isolated by size exclusion chromatography; The description says the dimer is a disulfide-linked homodimer; In the SPR assay it was captured on an anti-albumin antibody; also called dimeric D′D3-FP; rD′D3-FP
The experiment can be described thus: SPR (Biacore T200), D′D3-FP captured on anti-albumin antibody, rVIII-SingleChain as analyte, single cycle kinetics, 25° C. As for the experimental part: (§1) An anti-albumin antibody (MA1-20124, Thermo Scientific) was covalently coupled via its N-terminus to an activated CM 3 chip by NHS (N-Hydroxysuccinimide) and EDC […], both contained in the amine coupling kit (BR1000-50) from GE Healthcare. For immobilization 3 μg/mL of the antibody were diluted in sodium acetate buffer (10 mM, pH 5.0) and the antibody solution was flown over the chip for 7 min. at a flow rate of 10 μL/min. After the immobilization procedure non-coupled dextran filaments were saturated by flowing ethanolamine solution (1 M, pH 8.3) over the chip for 5 min (at a flow rate of 10 μL/min). The aim of saturating the flow cell was to minimize unspecific binding of the analytes to the chip. A reference flow cell was set up by saturating an empty flow cell with ethanolamine by using the same procedure as above.
(§2) Dimeric and monomeric D′D3-FP proteins, respectively, were immobilized to the covalently coupled anti-albumin antibody by a flow of the D′D3-FP proteins (5 μg/mL) over the chip for 3 min (flow rate of 10 μL/min).
(§3) To create binding curves for FVIII, each D′D3-FP protein preparation was diluted in running buffer (HBS-P+: 0.1 M HEPES, 1.5 M NaCl and 0.5% v/v Surfactant P20, pH 7.4; product code BR100671, GE Healthcare) to concentrations of 0.25 nM, 0.5 nM, 1 nM, 3 nM and 4 nM. […]
On the technique in general: In SPR one partner is held on a chip, and binding of the other changes the refractive index at the surface.

Experiment [2] deals with T1, D′D3 albumin fusion protein (D′D3-FP), …. As to the kind of experiment: SPR (Biacore T200), D′D3-FP captured on anti-albumin antibody, rVIII-SingleChain as analyte, single cycle kinetics, 25° C.; D′D3-FP dimer preparation. The method, then:
as §1, §2, §3

T1 sequence (chain, as listed by the source limits assumed, chain 1 of 2): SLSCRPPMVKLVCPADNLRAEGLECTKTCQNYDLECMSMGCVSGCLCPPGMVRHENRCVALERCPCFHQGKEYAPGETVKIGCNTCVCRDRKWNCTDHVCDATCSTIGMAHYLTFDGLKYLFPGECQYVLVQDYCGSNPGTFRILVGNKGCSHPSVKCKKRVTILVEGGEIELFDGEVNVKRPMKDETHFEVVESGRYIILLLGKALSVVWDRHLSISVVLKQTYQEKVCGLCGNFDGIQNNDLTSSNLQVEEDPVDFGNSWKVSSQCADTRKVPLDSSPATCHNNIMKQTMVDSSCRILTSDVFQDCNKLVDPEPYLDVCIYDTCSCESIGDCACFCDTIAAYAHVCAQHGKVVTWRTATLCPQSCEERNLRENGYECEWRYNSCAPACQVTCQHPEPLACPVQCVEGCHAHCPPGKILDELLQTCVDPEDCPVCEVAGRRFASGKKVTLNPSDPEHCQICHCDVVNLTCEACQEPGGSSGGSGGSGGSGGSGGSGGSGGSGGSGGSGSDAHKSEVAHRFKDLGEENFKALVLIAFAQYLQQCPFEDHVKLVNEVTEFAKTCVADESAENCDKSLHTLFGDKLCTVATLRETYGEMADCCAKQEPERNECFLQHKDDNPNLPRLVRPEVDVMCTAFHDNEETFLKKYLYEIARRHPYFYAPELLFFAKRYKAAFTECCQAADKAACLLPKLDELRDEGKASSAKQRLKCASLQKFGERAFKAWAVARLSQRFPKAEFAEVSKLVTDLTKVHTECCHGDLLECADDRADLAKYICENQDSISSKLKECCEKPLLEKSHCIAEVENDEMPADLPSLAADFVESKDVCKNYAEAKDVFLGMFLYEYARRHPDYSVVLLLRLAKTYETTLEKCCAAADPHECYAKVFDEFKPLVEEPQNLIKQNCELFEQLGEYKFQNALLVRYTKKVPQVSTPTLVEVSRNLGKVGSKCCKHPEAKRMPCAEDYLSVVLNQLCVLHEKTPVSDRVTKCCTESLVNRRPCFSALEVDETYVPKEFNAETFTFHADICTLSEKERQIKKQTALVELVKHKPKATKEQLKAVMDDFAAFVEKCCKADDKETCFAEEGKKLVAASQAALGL
T1 sequence (chain, as listed by the source limits assumed, chain 2 of 2): as the sequence (chain, as listed by the source limits assumed, chain 1 of 2) above

B1: rVIII-SingleChain (single chain Factor VIII molecule, construct dBN(64-53) of WO 2004/067566) (other)
chain: ATRRYYLGAVELSWDYMQSDLGELPVDARFPPRVPKSFPFNTSVVYKKTLFVEFTDHLFNIAKPRPPWMGLLGPTIQAEVYDTVVITLKNMASHPVSLHAVGVSYWKASEGAEYDDQTSQREKEDDKVFPGGSHTYVWQVLKENGPMASDPLCLTYSYLSHVDLVKDLNSGLIGALLVCREGSLAKEKTQTLHKFILLFAVFDEGKSWHSETKNSLMQDRDAASARAWPKMHTVNGYVNRSLPGLIGCHRKSVYWHVIGMGTTPEVHSIFLEGHTFLVRNHRQASLEISPITFLTAQTLLMDLGQFLLFCHISSHQHDGMEAYVKVDSCPEEPQLRMKNNEEAEDYDDDLTDSEMDVVRFDDDNSPSFIQIRSVAKKHPKTWVHYIAAEEEDWDYAPLVLAPDDRSYKSQYLNNGPQRIGRKYKKVRFMAYTDETFKTREAIQHESGILGPLLYGEVGDTLLIIFKNQASRPYNIYPHGITDVRPLYSRRLPKGVKHLKDFPILPGEIFKYKWTVTVEDGPTKSDPRCLTRYYSSFVNMERDLASGLIGPLLICYKESVDQRGNQIMSDKRNVILFSVFDENRSWYLTENIQRFLPNPAGVQLEDPEFQASNIMHSINGYVFDSLQLSVCLHEVAYWYILSIGAQTDFLSVFFSGYTFKHKMVYEDTLTLFPFSGETVFMSMENPGLWILGCHNSDFRNRGMTALLKVSSCDKNTGDYYEDSYEDISAYLLSKNNAIEPRSFSQNSRHPSTRQKQFNATTIPENTTLQSDQEEIDYDDTISVEMKKEDFDIYDEDENQSPRSFQKKTRHYFIAAVERLWDYGMSSSPHVLRNRAQSGSVPQFKKVVFQEFTDGSFTQPLYRGELNEHLGLLGPYIRAEVEDNIMVTFRNQASRPYSFYSSLISYEEDQRQGAEPRKNFVKPNETKTYFWKVQHHMAPTKDEFDCKAWAYFSDVDLEKDVHSGLIGPLLVCHTNTLNPAHGRQVTVQEFALFFTIFDETKSWYFTENMERNCRAPCNIQMEDPTFKENYRFHAINGYIMDTLPGLVMAQDQRIRWYLLSMGSNENIHSIHFSGHVFTVRKKEEYKMALYNLYPGVFETVEMLPSKAGIWRVECLIGEHLHAGMSTLFLVYSNKCQTPLGMASGHIRDFQITASGQYGQWAPKLARLHYSGSINAWSTKEPFSWIKVDLLAPMIIHGIKTQGARQKFSSLYISQFIIMYSLDGKKWQTYRGNSTGTLMVFFGNVDSSGIKHNIFNPPIIARYIRLHPTHYSIRSTLRMELMGCDLNSCSMPLGMESKAISDAQITASSYFTNMFATWSPSKARLHLQGRSNAWRPQVNNPKEWLQVDFQKTMKVTGVTTQGVKSLLTSMYVKEFLISSSQDGHQWTLFFQNGKVKVFQGNQDSFTPVVNSLDPPLLTRYLRIHPQSWVHQIALRMEVLGCEAQDLY
notes: also called FVIII
In general, koff refers to a measure of how fast the partners let go of each other. A higher koff goes with fast dissociation. By kon is commonly meant the second-order rate constant of association. Read a low kon as slow association. What is called Kd is the constant that tells how readily two partners part at equilibrium. Lower therefore signals higher affinity. Take B1: in experiment [1], the koff turned out to be 0.0015 s⁻¹ and the on-rate (kon) stood at 4.5e+07 M⁻¹ s⁻¹. In experiment [2], this molecule gave a dissociation constant Kd of 0.034 nM.

These data come from US20220389082A1 (CSL BEHRING LENGNAU, published 2022).
